Experimental findings from US7179886B1, “Cloning and identification of the motilin receptor” (Merck & Co., Inc., priority 1999, dated 2007) are described below.

No end group written: not given here. *: point of attachment. 125I = [125I]*

The target of assay [1] is T1, Cloned MTL-1A Receptor (human) (Homo sapiens, UniProt O43193).
T1 construct: The full length open reading frame appears to contain 412 amino acids; expressed in transfected cells; host or cells: HEK-293/aeq17 (293-AEQ17), transient transfection with lipofectamine
Kind of assay: Aequorin bioluminescence assay in HEK-293/aeq17 cells transfected with MTL-R1A. The class given is cell-based. The note with it: for EC50: HEK-293/aeq17 cells transfected with human MTL-R1A; for activity in MTL1-A functional and binding assays: high (10 μM) doses, statement covers functional and binding assays. The text has this:
A high-throughput assay was developed which measures Ca^2+realease with the bioluminescent Ca^2+sensitive-aequorin reporter protein (capable of measuring ligand-induced IP3-coupled mobilization of intracellular calcium and concomitant calcium-induced aequorin bioluminescence). […] The DNA and deduced amino acid sequence are given in SEQ. ID. NO.:2 and SEQ. ID. NO.:3, respectively.
To identify a ligand for this orphan GPCR and to determine whether the full length, 7 TM domain GPR38-A is a functional GPCR, a high-throughput assay was developed which measures Ca^2+ release with the bioluminescent Ca^2+ sensitive aequorin reporter protein (capable of measuring ligand-induced IP3-coupled mobilization of intracellular calcium and concomitant calcium-induced aequorin bioluminescence).
A broad set of peptide and non-peptide molecules was tested at a single concentration in transiently transfected HEK-293/aeq17 cells (100 nM peptide, 10 μM non-peptide).
The aequorin bioluminescence assay is a reliable test for identifying G protein-coupled receptors which couple through the Gα protein subunit family consisting of Gq and G11 which leads to the activation of phospholipase C, mobilization of intracellular calcium and activation of protein kinase C. Measurement of MTL-1A expression in the aequorin-expressing stable reporter cell line 293-AEQ17 (Button, D. et. al., 1993 Cell Calcium 14: p. 663–671.) was performed using a Luminoskan RT luminometer (Labsystems Inc., Gaithersburg, Md.).
293-AEQ17 cells (8×10^5 cells plated 18 hrs. before transfection in a T75 flask) were transfected with 22 μg of human MTL-R1A plasmid DNA: 264 μg lipofectamine. Following approximately 40 hours of expression the apo-aequorin in the cells was charged for 4 hours with coelenterazine (10 μM) under reducing conditions (300 μM reduced glutathione) in ECB buffer (140 mM NaCl, 20 mM KCl, 20 mM HEPES—NaOH [pH=7.4], 5 mM glucose, 1 mM MgCl2, 1 mM CaCl2, 0.1 mg/ml bovine serum albumin). The cells were harvested, washed once in ECB medium and resuspended to 500,000 cells/ml. 100 μl of cell suspension (corresponding to 5×10^4 cells) was then injected into the test plate, and the integrated light emission was recorded over 30 seconds, in 0.5 second units. 20 μL of lysis buffer (0.1% final Triton X-100 concentration) was then injected and the integrated light emission recorded over 10 seconds, in 0.5 second units. The “fractional response” values for each well were calculated by taking the ratio of the integrated response to the initial challenge to the total integrated luminescence including the Triton X-100 lysis response.

For assay [2], the target named is T1, Cloned MTL-1A Receptor (human). Kind of assay: [^125I] human motilin binding to crude membranes from HEK-293/aeq17 cells transfected with MTL-R1A cDNA. Particulars: for IC50: competition binding, crude membranes, 20° C. for 1 hr., read-out: [^125I] hmotilin binding (IC50). The procedure:
Crude cell membranes were prepared on ice, 48 hrs. post-transfection. […] Bound radioligand was separated by rapid vacuum filtration (Brandel 48-well cell harvester) through GF/C filters pretreated for 1 hr. with 0.5% polyethylenimine.

In assay [3] the test system is cells that were not transfected with the MTL-R1A cDNA expression vector. Put plainly: Aequorin bioluminescence assay in non-transfected cells. The note with it: concentrations as high as 10 μM. The class given is cell-based, human.
In assay [4] the target is T2, motilin receptor spliced form A (MTL-R1A), human (human, UniProt O43193 1-412). Put plainly: cell-based or functional assay.
The target of assay [5] is T2, motilin receptor spliced form A …. Kind of assay: cell-based or functional assay. The source holds these as a separate data set.
Assay [6] shares this target. Put plainly: displacement of [125I] human motilin from crude membranes of MTL-R1A transfected HEK-293/aeq17 cells. The protocol:
Crude cell membranes were prepared on ice, 48 hrs. post-transfection. Each T-75 flask was washed twice with 10 ml of PBS, once with 1 ml homogenization buffer (50 mM Tris-HCl [pH 7.4], 10 mM MgCl_2. 10 ml of homogenization buffer was added to each flask, cells were removed by scraping and then homogenized using a Polytron device (Brinkmann, Syosset, N.Y.; 3 bursts of 10 sec. at setting 4). The homogenate was centrifuged for 20 min. at 11,000×g at 0° C. and the resulting crude membrane pellet (chiefly containing cell membranes and nuclei) was resuspended in homogenization buffer supplemented with 1.5% BSA (0.5 ml T75 flask) and kept on ice.
Bound radioligand was separated by rapid vacuum filtration (Brandel 48-well cell harvester) through GF/C filters pretreated for 1 hr. with 0.5% polyethylenimine. After application of the membrane suspension to the filter, the filters were washed 3 times with 3 ml each of ice-cold 50 mM Tris-HCl [pH 7.4], 10 mM MgCl_2, and the bound radioactivity on the filters was quantitated by gamma counting. […] Competition binding data were analyzed by a non-linear curve-fitting program (Prism V, version 2.0; GraphPad Software, San Diego, Calif.).

Assay [7] has the same target. Put plainly: direct radioligand binding on cell membranes from transfected cells.

T1 sequence (O43193 whole entry): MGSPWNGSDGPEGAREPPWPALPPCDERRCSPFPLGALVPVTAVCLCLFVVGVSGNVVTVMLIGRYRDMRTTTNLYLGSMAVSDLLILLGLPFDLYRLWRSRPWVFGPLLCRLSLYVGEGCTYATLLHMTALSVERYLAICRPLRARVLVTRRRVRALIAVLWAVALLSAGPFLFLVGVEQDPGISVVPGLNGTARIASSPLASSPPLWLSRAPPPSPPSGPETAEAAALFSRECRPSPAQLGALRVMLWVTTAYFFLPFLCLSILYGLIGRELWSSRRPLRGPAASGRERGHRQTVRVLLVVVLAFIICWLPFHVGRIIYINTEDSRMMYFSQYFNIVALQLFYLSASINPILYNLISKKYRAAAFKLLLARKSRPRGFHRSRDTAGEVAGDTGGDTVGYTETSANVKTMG
T2 sequence (O43193 whole entry, canonical isoform): as the sequence (O43193 whole entry) above

For `COc1cc(N)c(Cl)cc1C(=O)NC1CCN(CCCOc2ccc(F)cc2)CC1OC` (centres unmarked) [cisapride], in assay [1], the EC50 is over 10000 nM; the “activity in MTL1-A functional and binding assays” value is “inactive”. For the same molecule, the concentration for half-maximal inhibition (IC50) in assay [2] was over 10000 nM.

As to FVPIFTHSELQKIREKERNKGQ [canine motilin], in assay [2], the IC50 came out at 0.2 nM.

In the case of `CCN(CC)CCNC(=O)c1cc(Cl)c(N)cc1OC` [metoclopramide], in assay [1], the EC50 was over 10000 nM; the “activity in MTL1-A functional and binding assays” value is “inactive”. The IC50 in assay [2] is over 10000 nM.

As to `CC[C@H](C)[C@H](NC(=O)[C@@H]1CCCN1C(=O)[C@@H](NC(=O)[C@@H](N)Cc1ccccc1)C(C)C)C(=O)N[C@@H](Cc1ccccc1)C(=O)N[C@H](C(=O)N[C@@H](Cc1ccc(O)cc1)C(=O)NCC(=O)N[C@@H](CCC(=O)O)C(=O)N[C@@H](CC(C)C)C(=O)N[C@@H](CCC(N)=O)C(=O)N[C@@H](CCCNC(=N)N)C(=O)N[C@@H](CCSC)C(=O)N[C@@H](CCC(N)=O)C(=O)N[C@@H](CCC(=O)O)C(=O)N[C@@H](CCCCN)C(=O)N[C@@H](CCC(=O)O)C(=O)N[C@@H](CCCNC(=N)N)C(=O)N[C@@H](CC(N)=O)C(=O)N[C@@H](CCCCN)C(=O)NCC(=O)N[C@@H](CCC(N)=O)C(=O)O)[C@@H](C)O` [human motilin], the “bioluminescent response in non-transfected cells” value in assay [3] is given as “no bioluminescent response above background levels”.

As to `CC[C@H]1OC(=O)[C@H](C)[C@@H](O[C@H]2C[C@@](C)(OC)[C@@H](O)[C@H](C)O2)[C@H](C)[C@@H](O[C@@H]2O[C@H](C)C[C@H](N(C)C)[C@H]2O)[C@](C)(O)C[C@@H](C)/C(=N\OCOCCOC)[C@H](C)[C@@H](O)[C@]1(C)O` [roxithromycin], in assay [1], it took 1950 nM to reach a half-maximal effect (EC50). The IC50 in assay [2] was 613 nM.

As for `Nc1nc2c(ncn2[C@@H]2O[C@H](COP(=O)(O)OP(=O)(O)OP(O)(O)=S)[C@@H](O)[C@H]2O)c(=O)[nH]1` [GTPγS], in assay [2] (100 nM GTPγS), the “inhibition of [^125I] human motilin binding” value is reported as over 80%.

B1: human motilin (peptide, UniProt P12872 26-47, looked up)
peptide: FVPIFTYGELQRMQEKERNKGQ
As for B1, in assay [4], the “bioluminescent response (aequorin assay, 100 nM peptide, transfected HEK-293/aeq17 cells)” value was over 4 fold over background.

B2: 1-12 MTL (peptide, UniProt P12872 26-37, looked up)
peptide: FVPIFTYGELQR
notes: range 1-12; The range counts on mature motilin, not on the precursor entry
B2: the “Aequorin Assay (EC50 nM)” value in assay [5] turned out to be 72 nM. The IC50 in assay [6] amounted to 14 nM.

B3: 1-11 MTL (peptide, UniProt P12872 26-36, looked up)
peptide: FVPIFTYGELQ
notes: range 1-11; The range counts on mature motilin, not on the precursor entry
Consider B3, for which the “Aequorin Assay (EC50 nM)” value in assay [5] stood at 138 nM. In addition, the 50% inhibitory concentration (IC50) in assay [6] came to 127 nM.

B4: canine motilin (peptide, UniProt P19863 1-22, looked up)
peptide: FVPIFTHSELQKIREKERNKGQ
As to B4, in assay [5], the “Aequorin Assay (EC50 nM)” value is 4.4 nM.

B5: 1-13 MTL (peptide, UniProt P12872 26-38, looked up)
peptide: FVPIFTYGELQRM
notes: range 1-13; The range counts on mature motilin, not on the precursor entry
As to B5, the “Aequorin Assay (EC50 nM)” value in assay [5] amounted to 3.8 nM. In assay [6], the IC50 was 0.9 nM.

B6: 1-19 MTL (peptide, UniProt P12872 26-44, looked up)
peptide: FVPIFTYGELQRMQEKERN
notes: range 1-19; The range counts on mature motilin, not on the precursor entry
For the molecule B6, the “Aequorin Assay (EC50 nM)” value in assay [5] was 4.1 nM. For the same molecule, the IC50 in assay [6] stood at 0.3 nM.

B7: 10-22 MTL (peptide, UniProt P12872 35-47, looked up)
peptide: LQRMQEKERNKGQ
notes: range 10-22; The range counts on mature motilin, not on the precursor entry
Consider B7, for which, in assay [5], the “Aequorin Assay (EC50 nM)” value is over 10000 nM. Moreover, in assay [6], the IC50 worked out at 1100 nM.

B8: [125I]-Tyr7-human motilin (peptide, UniProt P12872 26-47, looked up)
peptide: FVPIFTY(125I)GELQRMQEKERNKGQ
notes: mature
B8 showed a Kd in assay [7] of 0.1 nM.

B9: Leu13 MTL (peptide, UniProt P12872 26-47, looked up)
peptide: FVPIFTYGELQRLQEKERNKGQ
notes: mature; Position 13 counts on the mature peptide, not on the precursor
On to B9, for which, in assay [5], the “Aequorin Assay (EC50 nM)” value came out at 3.9 nM. Besides, the IC50 in assay [6] is 0.2 nM.
